Measurements reported in article PMC4174979 (DNA repair, 2014).

B1: Sgs1_(103–322) (domain or fragment, S. cerevisiae, UniProt P35187 103-322, looked up)
chain: ADVPMVDIPASTSVVSNPRTPNGSKTHNFNTFRPHMASSLVENDSSRNLGSRNNNKSVIDNSSIGKQLENDIKLEVIRLQGSLIMALKEQSKLLLQKCSIIESTSLSEDAKRLQLSRDIRPQLSNMSIRIDSLEKEIIKAKKDGMSKDQSKGRSQVSSQDDNIISSILPSPLEYNTSSRNSNLTSTTATTVTKALAITGAKQNITNNTGKNSNNDSNNDD
B2: Sgs1_(157–257) (domain or fragment, S. cerevisiae, UniProt P35187 157-257, looked up)
chain: NKSVIDNSSIGKQLENDIKLEVIRLQGSLIMALKEQSKLLLQKCSIIESTSLSEDAKRLQLSRDIRPQLSNMSIRIDSLEKEIIKAKKDGMSKDQSKGRSQ
B3: BLM_(95–294) (domain or fragment, human, UniProt P54132 95-294, looked up)
chain: AGQETQRGGSKSLLPDFLQTPKEVVCTTQNTPTVKKSRDTALKKLEFSSSPDSLSTINDWDDMDDFDTSETSKSFVTPPQSHFVRVSTAQKSKKGKRNFFKAQLYTTNTVKTDLPPPSSESEQIDLTEEQKDDSEWLSSDVICIDDGPIAEVHINEDAQESDSLKTHLEDERDNSEKKKNLEEAELHSTEKVPCIEFDDD

Biological target: the molecule itself
Experiment: SEC

Stoichiometry N, 6:
B1
B2
B3
